{
  "source": "paper PMC7565637",
  "key": {"[1]": {"target": "full-length Le Blanc δ (Le Blanc virus)", "experiment": "intact-protein LC-MS (reverse phase C3 column, Orbitrap); purified δ diluted to 200 ng/μl in 2% ACN, 0.1% FA; ZORBAX C3-300SB column, gradient 5% to 95% B; Orbitrap Fusion Lumos, positive mode; observed mass compared with the theoretical pentamer mass"}, "[2]": {"target": "Orsay virus capsid protein (CP) (Orsay virus)", "experiment": "co-sedimentation; infectious Orsay virions from culture supernatant of infected rde-1 worms, Triton X-100 treated, pelleted, banded on a 25% to 47.5% iodixanol step gradient (~1.3 g/ml); SDS-PAGE and Western blot with anti-CP antiserum, band intensities measured with Fiji"}, "[3]": {"target": "full-length Santeuil δ (Santeuil virus)", "experiment": "intact-protein LC-MS (reverse phase C3 column, Orbitrap); purified δ diluted to 200 ng/μl in 2% ACN, 0.1% FA; ZORBAX C3-300SB column, gradient 5% to 95% B; Orbitrap Fusion Lumos, positive mode; observed mass compared with the theoretical pentamer mass"}, "[4]": {"target": "Orsay δ(1–101) (Orsay virus)", "experiment": "crystal structure; Orsay δ(1–101) crystallised by hanging drop, 0.1 M ammonium sulfate, 0.1 M sodium acetate pH 4.6, 25% PEG 4000, 20°C; space group P212121, five chains in the asymmetric unit; 1.8 Å"}},
  "data": [
    {"substance": "full-length Le Blanc δ (natural protein)", "values": [
      {"measurement": "stoichiometry N", "setting": "[1]", "value": 5}
    ]},
    {"substance": "Orsay CP-δ fusion protein (natural protein)", "values": [
      {"measurement": "pentameric CP-δ fibers per viral particle (fibers per viral particle)", "setting": "[2]", "value": 1.1}
    ]},
    {"substance": "full-length Santeuil δ (natural protein)", "values": [
      {"measurement": "stoichiometry N", "setting": "[3]", "value": 5}
    ]},
    {"substance": "Orsay δ(1–101) (domain or fragment)", "values": [
      {"measurement": "stoichiometry N", "setting": "[4]", "value": 5}
    ]}
  ]
}
